{"source": "paper PMC2685030", "about": "“SmCL3, a Gastrodermal Cysteine Protease of the Human Blood Fluke Schistosoma mansoni” (PLoS Neglected Tropical Diseases, 2009)", "test_system": "Cc1cc(=O)oc2cc(NC(=O)[C@H](CCCNC(=N)N)NC(=O)[C@H](Cc3ccccc3)NC(=O)OCc3ccccc3)ccc12", "experiment": "purified protein", "details": "pH 6.0 citrate-phosphate, 25°C, 3 nM enzyme", "data": [{"substance": "SmCL3 (Schistosoma mansoni)", "values": [{"measurement": "Km", "value": 20.2, "unit": "µM"}]}]}
